The labels stand for the following.
B1: Azoarcus group I ribozyme (parent)
chain: GUGCCUUGCGCCGGGAAACCACGCAAGGGAUGGUGUCAAAUUCGGCGAAACCUAAGCGCCCGCCCGGGCGUAUGGCAACGCCGAGCCAAGCUUCGGCGCCUGCGCCGAUGAAGGUGUAGAGACUAGACGGCACCCACCUAAGGCAAACGCUAUGGUGAAGGCAUAGUCCAGGGAGUGGCGAAAGUCACACAAACCGG

In this data set the parent is B1. Nature of the data set: reverse-splicing fitness (ratio to wild type); higher = more active; in vitro selection; Mg2+ level not given. In outline:
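An in vitro group I ribozyme library with randomized positions was T7-transcribed and gel-purified. In triplicate, 10 pmol RNA in EPPS pH 7.5 was reacted with 50 pmoles of a 30-nt RNA substrate for 1 h at 37 °C across several added MgCl2 levels (1–48 mM), then stopped with EDTA. Products were reverse transcribed from a substrate-complementary primer, PCR-amplified and sequenced (HiSeq 4000). Fitness is a variant's read proportion after selection over that before, normalised to wild type.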
Take C82U A145C U176C: the reverse-splicing fitness came to 0.449.
In the case of C82U A145C U176G it was 0.141; in that of C82U A145C U176A, 0.38.
For the variant C82U A120U C150A U176G, the reverse-splicing fitness is 0.00418.
In the case of C82U A120U C150A U176A it was 0.00756; in that of C82U A120U C150A U176C, 0.0109; in that of C82U A145C C169G U176C, 0.00995.
In the case of C82U A145C C169G U176A it was 0.0179; in that of C82U A145C C169G U176G, 0.00428.
In the case of C82U A145U C150A C169G U176G it was 0.0051.
Regarding C82U A145U C150A C169G U176C, the reverse-splicing fitness was 0.00918.
As for C82U A145U C150A C169G U176A, the reverse-splicing fitness was 0.0104.
In the case of C82U A145C C169A U176G it was 0.00383.
Regarding C82U A145C C169A U176C, the reverse-splicing fitness turned out to be 0.00633.
On to C82U A145C C169A U176A, for which the reverse-splicing fitness worked out at 0.00806.
In the case of C82U A145U C150A U176G it was 0.0221; in that of C82U A145U C150A U176A, 0.055; in that of C82U A145U C150A U176C, 0.0543.
For C82U A120U C169A U176C the value was 0.00216; for C82U A120U C169A U176G, 0.00126; for C82U A120U C169A U176A, 0.00238.
In the case of C82U A145U C150U C169G U176G it was 0.00498; in that of C82U A145U C150U C169G U176C, 0.0107.
With C82U A145U C150U C169G U176A, the reverse-splicing fitness was 0.00933.
In the case of C82U A120U C169U U176A, the reverse-splicing fitness was 0.00362.
For C82U A120U C169U U176C the value was 0.0045; for C82U A120U C169U U176G, 0.00164.
In the case of C82U A120U C169G U176A it was 0.00252.
Take C82U A120U C169G U176G: the reverse-splicing fitness stood at 0.0015.
Turning to C82U A120U C169G U176C, the reverse-splicing fitness worked out at 0.00306.
In the case of C82U A120U C150G U176G it was 0.0022; in that of C82U A120U C150G U176A, 0.00531.
In the case of C82U A120U C150G U176C it was 0.00788; in that of C82U A145G C169U U176A, 0.0137.
C82U A145G C169U U176C: the reverse-splicing fitness stood at 0.0131.
As to C82U A145G C169U U176G, the reverse-splicing fitness is 0.00391.
In the case of C82U A145G C169A U176A it was 0.0178; in that of C82U A145G C169A U176G, 0.00411; in that of C82U A145G C169A U176C, 0.0258.
For C82U A145U C169A U176C the value was 0.00648.
For C82U A145U C169A U176G the value was 0.00464; for C82U A145U C169A U176A, 0.00693; for C82U C150G C169G U176C, 0.0054.
Regarding C82U C150G C169G U176G, the reverse-splicing fitness worked out at 0.00464.
As for C82U C150G C169G U176A, the reverse-splicing fitness is 0.00631.
In the case of C82U A145U C150G C169G U176G it was 0.0049; in that of C82U A145U C150G C169G U176A, 0.00745; in that of C82U A145U C150G C169G U176C, 0.00478.
In the case of C82U A120U U176C it was 0.0796.
For C82U A120U U176G, the reverse-splicing fitness was found to be 0.0137.
In the case of C82U A120U U176A it was 0.0428; in that of C82U A145G C150U C169U, 0.0153; in that of C82U A145G C150U C169A, 0.0113.
For C82U A145G C150U C169G the value was 0.0102; for C82U C150U C169G, 0.00973; for C82U C150U C169A, 0.00983.
Turning to C82U C150U C169U, the reverse-splicing fitness was 0.0129.
In the case of C82U A145C C150G C169U U176A, the reverse-splicing fitness came out at 0.00881.
In the case of C82U A145C C150G C169U U176G it was 0.00486.
In the case of C82U A145C C150G C169U U176C it was 0.00785; in that of C82U A145U C150A C169A, 0.00771.
In the case of C82U A145U C150A C169U it was 0.00825; in that of C82U A145U C150A C169G, 0.00614; in that of C82U A145U C150G C169G, 0.00717.
Take C82U A145U C150G C169A: the reverse-splicing fitness came to 0.00864.
Regarding C82U A145U C150G C169U, the reverse-splicing fitness amounted to 0.00842.
For C82U A145G C150U U176A the value was 0.315; for C82U A145G C150U U176C, 0.372; for C82U A145G C150U U176G, 0.0868.
With C82U A145U C150U C169U U176A, the reverse-splicing fitness is 0.0133.
Regarding C82U A145U C150U C169U U176C, the reverse-splicing fitness stood at 0.0115.
For C82U A145U C150U C169U U176G the value was 0.00433; for C82U A145C C150G C169G, 0.00699; for C82U A145C C150G C169U, 0.00824.
On to C82U A145C C150G C169A, for which the reverse-splicing fitness came to 0.00743.
As to C82U C169G U176A, the reverse-splicing fitness is 0.0144.
In the case of C82U C169G U176G it was 0.00406; in that of C82U C169G U176C, 0.0184; in that of C82U A145C C150G U176A, 0.0431.
For C82U A145C C150G U176C the value was 0.0583; for C82U A145C C150G U176G, 0.00905; for C82U A145U C150U C169A, 0.00939.
For C82U A145U C150U C169G the value was 0.00951; for C82U A145U C150U C169U, 0.0118.

These data come from the RNAGym collection of RNA variant scans (doi:10.1093/molbev/msab373).
